One molecule from patent US20240287184A1 (GUANGDONG FAPON BIOPHARMA, published 2024) can be followed below.

What is called IC50 is the midpoint of a concentration-inhibition curve. The term EC50 denotes the midpoint of the concentration-response curve. Usually Kd stands for the equilibrium constant for the complex coming apart. As usually defined, the koff is the rate constant with which the complex falls apart. A word on the kon: it is a measure of how fast the partners come together.

Assay [1] has as its target T1, human CTLA4-hFc (human, UniProt P16410 37-162, limits assumed).
T1 construct: Commercial protein; also called CTLA-4 (ACRO); not shown: human Fc (hFc)
Nature of the assay: ELISA, antigen coated at 1 µg/mL. From the text: (§1) A horse radish peroxidase (HRP)-coupled anti-human IgG (F) was used as the secondary antibody. After developed with TMB and terminated, it was read for an OD450 value with a microplate reader.

Assay [2] concerns the target T2, human ICOS-hFc (human, UniProt Q9Y6W8 21-140).
T2 construct: Commercial protein; also called ICOS (ACRO); not shown: human Fc (hFc)
T2 sequence (looked up): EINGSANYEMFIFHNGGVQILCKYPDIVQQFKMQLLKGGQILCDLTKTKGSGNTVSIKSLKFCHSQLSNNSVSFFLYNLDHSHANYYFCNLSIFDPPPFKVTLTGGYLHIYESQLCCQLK
Nature of the assay: ELISA, antigen coated at 1 µg/mL.
Description: as §1
Background: ELISA stands for enzyme-linked immunosorbent assay.

In assay [3] the target is T3, human CD28-hFc (human, UniProt P10747 19-152).
T3 construct: Commercial protein; also called CD28 (ACRO); not shown: human Fc (hFc)
Nature of the assay: ELISA, antigen coated at 1 µg/mL.
Description: as §1

In assay [4] the target is T4, recombinant human PD-1 expressed on the surface of CHO cells (CHO-hPD1) (human, UniProt Q15116 25-288).
T4 construct: whole, on cells; also called CHO-PD1; hPD1-transfected CHO cells
T4 sequence (Q15116 25-288): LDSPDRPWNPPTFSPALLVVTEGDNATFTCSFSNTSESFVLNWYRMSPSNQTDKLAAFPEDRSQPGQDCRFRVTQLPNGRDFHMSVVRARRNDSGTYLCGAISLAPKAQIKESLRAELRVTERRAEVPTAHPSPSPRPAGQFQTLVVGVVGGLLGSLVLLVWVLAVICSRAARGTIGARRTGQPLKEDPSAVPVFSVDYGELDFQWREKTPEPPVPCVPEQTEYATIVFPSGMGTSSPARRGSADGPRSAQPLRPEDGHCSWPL
Nature of the assay: flow cytometry, blocking of PD-L2-hFc binding to CHO-hPD1, mode 2 (antibody first). As for the experimental part:
(§2) The ability of the anti-PD-1 mouse monoclonal antibody to block the binding of the ligand to a PD-1 stably expressed on the surface of transfected CHO cells was analyzed by a flow cytometer.
(§3) The cells were centrifuged at 300 g for 5 minutes, washed once with the buffer, added with a PE-labeled goat anti-human IgG fluorescent antibody (Biolegend), and incubated at 4° C. for 30 minutes. The cells were centrifuged and washed once, then resuspended in PBS, and subsequently analyzed by a CytoFlex flow cytometer to detect the quantity of the ligand protein bound to the cells, and calculate the IC₅₀ value of the PD-1 antibody in blocking the binding.
A general note: In flow cytometry, cells or beads pass a laser one at a time.

The target of assay [5] is T4, recombinant human PD-1 expressed on the …. Nature of the assay: flow cytometry, blocking of PD-L1-hFc binding to CHO-hPD1, mode 2 (antibody first). As to the method:
as §2, §3

Assay [6] has as its target T5, monkey PD1 expressed on the surface of CHO cells (CHO-cynoPD1) (monkey).
T5 construct: whole, on cells
Nature of the assay: flow cytometry on CHO-cynoPD1 cells. As for the experimental part:
(§4) In order to evaluate the binding of the anti-PD-1 mouse monoclonal antibody to the CHO-h PD1, 2×10⁵ CHO-hPD1 cells and an anti-PD-1 mouse monoclonal antibody diluted in concentration gradient (with an initial concentration of 10 μg/mL, and diluted in 3-fold gradient) were added into a 96-well plate, and incubated at 4° C. for 30 minutes. The cells were washed once with a buffer (PBS containing 3% BSA) and then added with a PE-labeled anti-mouse IgG (Fc) Ab (Biolegend) fluorescent secondary antibody, incubated at 4° C. for 30 minutes, then washed once with the buffer and subsequently resuspended in PBS. Thereafter, the cell suspension was subjected to flow cytometric analysis by CytoFlex (Beckman flow cytometer), and the quantity of the antibody bound to the cells was measured according to the mean fluorescence intensity (MFI) of the staining. The same method was used for evaluating the binding of the anti-PD-1 mouse monoclonal antibody to the CHO-cyno cells and the CHO-mousePD1 (sometimes abbreviated as “CHO-mPD1” in the application) cells.

Assay [7] deals with T4, recombinant human PD-1 expressed on the …. Nature of the assay: flow cytometry, blocking of PD-L2-hFc binding to CHO-hPD1, mode 1 (ligand first). As for the experimental part:
as §2, §3

For assay [8] the target is unchanged. The assay is described as follows: flow cytometry on CHO-hPD1 cells. As to the method:
as §4

Assay [9] addresses T6, mouse PD1 expressed on the surface of CHO cells (CHO-mousePD1) (mouse, UniProt Q02242 25-288).
T6 construct: whole, on cells; also called CHO-mPD1
T6 sequence (looked up): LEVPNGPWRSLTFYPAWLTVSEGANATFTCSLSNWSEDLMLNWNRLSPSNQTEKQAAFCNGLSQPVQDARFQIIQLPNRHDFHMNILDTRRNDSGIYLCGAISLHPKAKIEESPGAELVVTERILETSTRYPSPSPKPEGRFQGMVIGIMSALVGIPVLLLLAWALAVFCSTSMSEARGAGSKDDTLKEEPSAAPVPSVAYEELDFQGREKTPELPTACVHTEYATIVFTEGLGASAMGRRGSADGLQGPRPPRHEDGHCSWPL
Nature of the assay: flow cytometry on CHO-mousePD1 cells. As to the method:
as §4

For assay [10], the target named is T1, human CTLA4-hFc. The assay is described as follows: ELISA, antigen coated at 1 µg/mL, antibody 10 µg/mL. An excerpt: (§5) The anti-PD-1 mouse monoclonal antibody was allowed to bind with four different member proteins of CD28 family to verify the specificity of the antibody in binding to PD-1. […] A horse radish peroxidase (HRP)-coupled anti-mouse IgG(Sigma) was used as the secondary antibody. After developed with TMB and terminated, it was read for an OD450 value with a microplate reader.

In the next assay the target is T7, human PD-1-hFc (human, UniProt Q15116 25-167).
T7 construct: Commercial protein; also called PD-1 (ACRO); not shown: human Fc (hFc)
T7 sequence (Q15116 25-167 limits assumed): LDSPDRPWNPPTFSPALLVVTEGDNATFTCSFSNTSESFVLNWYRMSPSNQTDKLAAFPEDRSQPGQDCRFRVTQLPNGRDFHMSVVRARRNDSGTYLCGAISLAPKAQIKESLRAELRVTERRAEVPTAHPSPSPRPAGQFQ
The description is as above.
Description: as §5

In assay [11] the target is T2, human ICOS-hFc. Described as above.
Description: as §5

Assay [12] has as its target T3, human CD28-hFc. The description is as above.
Description: as §5

Assay [13] deals with T8, PD1 naturally expressed by activated human lymphocytes (PHA-activated PBMC) (human, UniProt Q15116 25-288).
T8 construct: whole, on cells; Also used as the target for the mixed lymphocyte reaction (human T cells)
T8 sequence (Q15116 25-288): as the sequence (Q15116 25-288) above
Nature of the assay: flow cytometry on PHA-activated human PBMC. As to the method: After being obtained from fresh human peripheral blood by gradient centrifugation of lymphatic separation medium, the PBMCs were adjusted to the density of 1×10⁶ cells/mL and inoculated into T75, and meanwhile added with PHA-L (Sigma) at a final concentration of 1 μg/mL to stimulate the proliferation of lymphocytes. After being allowed to stand in an incubator at 37° C. and 5% CO₂ for 3 days, the cell suspension was taken out and centrifuged. […] The cells were washed once with the buffer, and added with a PE-labeled goat anti-human IgG fluorescent antibody (Biolegend), and incubated at 4° C. for 30 minutes.

Assay [14] concerns the target T4, recombinant human PD-1 expressed on the …. Nature of the assay: flow cytometry, blocking of PD-L1-hFc binding to CHO-hPD1, mode 1 (ligand first). As to the method:
as §2, §3

The target of assay [15] is T9, PD-1-his (ACRO) recombinant protein (UniProt Q15116 25-167).
T9 construct: Commercial protein; not shown: his tag
T9 sequence (Q15116 25-167 limits assumed): as the sequence (Q15116 25-167 limits assumed) above
Nature of the assay: BLI (ForteBio Octet), PD-1-his loaded on sensor, antibody in solution. As to the method:
Finally, analysis was conducted by utilizing a kinetic model.
In general terms: Biolayer interferometry detects binding as a change in optical thickness at a sensor tip.

T1 sequence (P16410 37-162 limits assumed): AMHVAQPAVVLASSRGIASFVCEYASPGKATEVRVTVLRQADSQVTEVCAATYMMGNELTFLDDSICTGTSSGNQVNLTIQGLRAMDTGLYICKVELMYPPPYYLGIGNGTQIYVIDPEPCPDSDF

B1: anti-PD-1 mouse monoclonal antibody PD-1-112-C2 (antibody, V domains shown)
VH: QVQLQQPGAELVKPGASVKLSCKASGYTFTTYYMYWVKQRPGQGLEWIGGINPSNGGTNFNEKFKSKATLTVDKSSSTAYMQLSSLTSEDSAVYYCTRRDSNYDGGFDYWGQGTTLTVSS
VL: DIVLTQSPASLAVSLGQRATISCRASKSVSTSGYSYMHWYQQKPGQPPKLLIYLAYHLESGVPARFSGSGSGTDFTLNIHPVEEEDAATYYCQHSWELPITFGSGTKLEIKR
notes: Mouse monoclonal antibody from a hybridoma
Turning to B1, the binding result in the assay with human CTLA4-hFc [1] is “no binding (tested: 10 µg/mL)”; with human ICOS-hFc [2] it was “no binding (tested: 10 µg/mL)”; in the assay with human CD28-hFc [3], “no binding (tested: 10 µg/mL)”; in [9], “no binding (tested: initial concentration of 10 µg/mL)”. The IC50 in assay [4] was 3.73 nM; in [5], 1.55 nM; in assay [7] it was 4.61 nM; in [14], 2.57 nM. Further, the EC50 in assay [6] was found to be 0.463 nM; in assay [8], 0.739 nM; in assay [13], 0.109 nM. Further, the OD450 with human CTLA4-hFc [10] was found to be 0.131 OD450; in the assay with human PD-1-hFc it was 2.12 OD450; with human ICOS-hFc [11], 0.062 OD450; with human CD28-hFc [12] it was 0.0625 OD450. For the same molecule, the Kd in assay [15] is 0.0435 nM. In addition, in assay [15], the koff turned out to be 3.18e-05 s⁻¹. The kon in assay [15] is 732000 M⁻¹ s⁻¹.
